Measured values from the nanobody polyreactivity screen of Harvey et al. (2022).

Experiment: yeast display, Sf9 membrane polyspecificity reagent, FACS + sequencing; frameworks hold sequencing errors
Outline: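 Nanobodies came from a synthetic yeast display library in Saccharomyces cerevisiae BJ5465, induced with galactose for 36–48 hours and stained for 1 hour at 4 °C with 10% biotinylated, detergent-solubilized Sf9 membrane reagent. Cells were enriched on streptavidin microbeads and then FACS-sorted, with low and high (top ~1%) gates set on anti-HA fluorescence for expression and streptavidin fluorescence for reagent binding. Each polyreactivity label reflects the gate a clone came from. Genes were amplified by colony PCR, sequenced by MiSeq 2 × 250 and filtered by CDR length.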

Row | Sequence | polyreactivity (PSR sort gate)
1 | QVQLVESGGGLVQAGGSLRLSCAASGLTFYHVNAMGWYRQAPGKERELVAGISTRGGSTYYADSVKGRFTISRDNAKNTVYLQMNSLKPEDTAVYYCAAYGSAAQKYPYDRPYRYGYWGQGTQVTVSS | high polyreactivity
2 | QVQLVESGGGLVQAGGSLRLSCAASGLTFYHYAMGSYRQAPGKERELVAAITTIGGSTNYADSVKGRFTISRDNAKNTVYLQMNSLKPADNAVYYCAKKLTDAQASSHYDYWGQGTQVTVSS | low polyreactivity
3 | QVQLVESGGGLVQAGGSLRLSCAASGLTFYIYAMGWYRQAPGKERELVASITWSTTSTSYADSVKGRFTISRDNAKNTVYLQLKSLKPEDTAVYYCNADVPGYFLYDDSYEYWGQGTQVTVSS | low polyreactivity
4 | QVQLVESGGGLVQAGGSLRLSCAASGLTFYKNAMGWYRQAPGKERELVAVISSSGGSTYYADSVKGRFTISRDNAKNTVYLQMYSLKPEDSAVYYFARDLYTEYRWGRLTYDYRGQGTQVTVSS | low polyreactivity
5 | QVQLVESGGGLVQAGGSLRLSCAASGLTFYLYAMGWYRQAPGKERELVAAISRSGGSTYYADSVKGRFTISRDNAKNTVYLQMNSLKPEDTAVYYCAAVTYYPEIRKYYYWGQGTQVTVSS | high polyreactivity
6 | QVQLVESGGGLVQAGGSLRLSCAASGLTFYRNAMGWYRQAPGKERELVAAITKSGARTYYAVSVKGRFTISRDNAKNTVYLQMNSLKPEDTAVYYCAADALNTYYYWGQGTQVTVSS | high polyreactivity
7 | QVQLVESGGGLVQAGGSLRLSCAASGLTFYSNSMGWYRPAPGKERELVAVISADGASTYYADSVKGRFTISRDNAKNTVYLQMNSLKPEDTAVYYCAARVSARGKGYYWGQGTQVTVSS | high polyreactivity
8 | QVQLVESGGGLVQAGGSLRLSCAASGLTFYTNAMGWYRQAPGKERELVAAITSSGGRTYYADSVKGRFTISRDNAKNTVYLQMNILKPEDTAVYYCAADALRPRIPEMYYWGQGTQVTVSS | high polyreactivity
9 | QVQLVESGGGLVQAGGSLRLSCAASGLTFYTYPMGWYRQAPGKERELVAAISSSTGSTYYADSVKGRFTISRDNAKNTVYLQMNSLKPEDSAVYYCAAESYWGVNYWGQGTQVTVSS | high polyreactivity
10 | QVQLVESGGGLVQAGGSLRLSCAASGLTFYVYTMGWYRQAPGKERELVAVISSGDSTYYADSVKGRFTISRDNAKNTVYLQMNSLKPEDTAVYYCAAGTHYRIVRYGLYDYWGQGTQVTVSS | low polyreactivity
11 | QVQLVESGGGLVQAGGSLRLSCAASGLTFYVYTMGWYRQEPGKERELVAAITGSGGSTFYADSVKGRFTISRDNAKNTVFIQMNSLKREDTAVYYCAAYYYMSDGYDYWGQGTQVTVSS | low polyreactivity
12 | QVQLVESGGGLVQAGGSLRLSCAASGLTFYWNAMGWYRQAPGKERELVASISQSSGNTYYADSVKGRFTISRDNAKNTVYFQMNSLKPEDTAVYYCAARNRPSLNRYYYWGQGTQVNVSS | low polyreactivity
13 | QVQLVESGGGLVQAGGSLRLSCAASGLTFYYNAMGWYRQAPGKERELVAAISRSGGSTYYADSVKGRFTISRDNAKNTVYLQMNSLEPEDTAVYYCAAALRKEYDYWGQGTQVTVSS | high polyreactivity
14 | QVQLVESGGGLVQAGGSLRLSCAASGLTFYYNAMGWYRQAPGKERELVAAITRGTSTHYADSVKWRFTISRDNAKNTVYLQMNSLKPEDTAVYYCAAPYRYSWWRGDYWGQGTQVTVSS | high polyreactivity
15 | QVQLVESGGGLVQAGGSLRLSCAASGLTFYYYAMGWSRQAPGKERELVAAISRSGGSTYYADSVKGRFTISRDNAKNTVYLQINSLKPEDTAVYYCAAREPYEGQRYYYEYYYWGQGTQVTVSS | high polyreactivity
16 | QVQLVESGGGLVQAGGSLRLSCAASGLTFYYYAMGWYRQAPGKERELVASINRSSGSTYYADSVKGRFTISRDNAKNTVYLQMNSLKPEDTAVYYCAVKKHWPHPAYTRYYKYYYWGQGTQVTVSS | high polyreactivity
17 | QVQLVESGGGLVQAGGSLRLSCAASGLTFYYYAMGWYSQPPGKERELVAAISIGGSTDYADSVKGRFTISRDNAKNTVYLQMNSLKPEDTAVYYCNVDDNSEYEYWGQGTQVTVSS | low polyreactivity
18 | QVQLVESGGGLVQAGGSLRLSCAASGLTFYYYTMGWYRQAPGKERELVATISRSGTSTNYADSVKGRFTISRDNAKNTVYLQMNSLKPEDTAVYYCAAVLRWRDLFSEYYYWGQGTQVTVSS | high polyreactivity
19 | QVQLVESGGGLVQAGGSLRLSCAASGLTIDYYTMGWYRQAPGKERELVAAINWSGGRTYYADSVKGRFTISRDHAKNTVYLQMNSLKPEDTAVYYCAADTYRRHDDDYWGQGTQVTVSS | high polyreactivity
20 | QVQLVESGGGLVQAGGSLRLSCAASGLTIFRNAMGWYRQAPGKEREFVAGITSTDGSTYYADSVKGRFTISRDNAKNTVYLQMNSLKPEDTAVYYCAAAYRVRGRTYDSWGQGTQVTVSS | high polyreactivity
21 | QVQLVESGGGLVQAGGSLRLSCAASGLTIFVNAMGWYRQAPGKERELVATISCGGSTYYADSVKGRFTISRDNANNTVYLQLNSLKPEDSSVFYCNAADVGGQWWYPYTYNYWGQGTQVTVSS | low polyreactivity
22 | QVQLVESGGGLVQAGGSLRLSCAASGLTIWRYAMGWYRQAPGKEREFVATISQNGGRTYYADSVKGRFTISRDNAKNTVYLQMNSLKPEVNAVYYCAADDWRWGYDYWGQGTQVTVSS | high polyreactivity

Row | Sequence | polyreactivity (PSR sort gate)
23 | QVQLVESGGGLVQAGGSLRLSCAASGLTLDQYPMGWYRPAPGKEREFVAAISYSGGNTYYADSVKGRFTISRYNAKNTVYLQMNSLKPEETAVYYCAAYYYYFYHKVIWYELDYWGHGTQVTVSS | low polyreactivity
24 | QVQLVESGGGLVQAGGSLRLSCAASGLTLGRYAKGWYRQAPGKARELVAVITGGGSTNYADSVKGRFTISRDNAKNTVYLQMNTLKTEDTAVYFCAVRGGIFQTLSTWYRYYYWGQGTQVTVSS | high polyreactivity
25 | QVQLVESGGGLVQAGGSLRLSCAASGLTLGRYARGWYRQAPGKERELVAVITGGGSTNYADSVKGRFTISRDNSKNTVYLQMNSLKPEDTAVYYCAAARSPYKYSYWGQGTQVTVSS | high polyreactivity
26 | QVQLVESGGGLVQAGGSLRLSCAASGLTLGSYTMGWYRQAPGKERELVAAIRKRGSSSYYADSVKGRFTISRDNAKNTVYLQMISQKPEDTAVYYCATDVASYWYRFFWRYGYWGQGTQVTVSS | low polyreactivity
27 | QVQLVESGGGLVQAGGSLRLSCAASGLTLKRNAMGWYRQAPGKERELVAAISGRGGSTYYADSVKGRFTISRDNAKNTVYLQMNSLKPEVTAVYYCAATVQYSPIYDYWGQGTQVTVSS | high polyreactivity
28 | QVQLVESGGGLVQAGGSLRLSCAASGLTLRNYAMGWYRQAPGKERELVAAITTGGGRTYYADSVKGRFTISRDNAKNTVYFQMNSVKPEDTAVYYCAADAPREYVDHYKYDDDYWGQGTQVTVSS | low polyreactivity
29 | QVQLVESGGGLVQAGGSLRLSCAASGLTLTWNAMGWYRQAPGKERELVAAITGSGGRTNYADSVKGRFTISRDNAKNTVYLQMNSLKPEDTAVYYCASFRWYHWGTRYDYWGQGTQVTVSS | high polyreactivity
30 | QVQLVESGGGLVQAGGSLRLSCAASGLTLTYYAMGWYRQAAGKERELVAAISSSGGSTYYADSVKGRFTISRDNAKNTVYLQMNSLKPEDTAVYYCAATRVSWTGRDDYWGQGTQVTVSS | high polyreactivity
31 | QVQLVESGGGLVQAGGSLRLSCAASGLTLWTYAMGWYIQAPGQERELVARIRSGGSTYYADSVKGRFTISRDNAKNTVYLQMNSLKPEDTAVYYCAADLQSRVDYWGQGTQVTVSS | high polyreactivity
32 | QVQLVESGGGLVQAGGSLRLSCAASGLTLYFYVMGWYRQAPGKERELVAAISSTGSTYYADSVKGRFSISRDNAKNTVYLQMNSLKPEDTAVYYCAARKRGWYGYWGQGTQVTVSS | high polyreactivity
33 | QVQLVESGGGLVQAGGSLRLSCAASGLTLYKNGMGWYRQAPGKERELVAVISRSGGRTYYADSVKGRFTISRDNAKNTVYLQMNSLKPEDTAVYYCAARQYGPRYTYYYWGQGTQVTVSS | high polyreactivity
34 | QVQLVESGGGLVQAGGSLRLSCAASGLTLYKNGMGWYRQAPGKERELVAVISRSGGRTYYAESVKGRFTISRDNAKNTVYLQMNSLKPEDTSVYYCAKRYGYTEYYYWGQGTQVTVSS | high polyreactivity
35 | QVQLVESGGGLVQAGGSLRLSCAASGLTLYRYVMGWYRQAPGKERELVADISGRGTSTYYADSVKGRFTISRDNAKNTVYLQMNRLKPAATAVYYCNAEYTKTGALVIPYTYYYAEDYWGQGTQVTVSS | low polyreactivity
36 | QVQLVESGGGLVQAGGSLRLSCAASGLTLYYNAMGWYRQAPGKERELVAAMSGSGGNTYYADSVKGRFTISRDNAKNTVYLQMNSLKPEDTAVYYCNAYTHSRNPERREYYWGQGTQVTVSS | high polyreactivity
37 | QVQLVESGGGLVQAGGSLRLSCAASGLTSVRYAMGWYRQAPGKERELVARISTGGSTYYADSVKGRFTISRDNAKNTVYLQMNSLKPEDTAVYYCNKGYARRYASGYDYWGQGTQVTVSS | high polyreactivity
38 | QVQLVESGGGLVQAGGSLRLSCAASGLTVKWNAMGWYREAPGKETELFASITSGGSTNYADSVKGRFTISRDNAKNTVYLQMNSLKPEDTAFYYCNAEYYLFKRPYSYYYWGQGTQVTVSS | low polyreactivity
39 | QVQLVESGGGLVQAGGSLRLSCAASGMFGLNAMGWYRQAPGKERELVAAIRWTGSSTYYADSVKGRFTISRDNAKNTVYLQMNSLKPEDTADYYCAADFYVWGIWMEYWGQGTQVTVSS | high polyreactivity
40 | QVQLVESGGGLVQAGGSLRLSCAASGMIFRRYAMGWYRQAPGKERELVAAITSGGSTYYADSVKGRFTISRDNAKKTVYLQMNSLKAEDTAVYSCAAVFYYATYSKKFEYWGQGTQVTVSS | high polyreactivity
41 | QVQLVESGGGLVQAGGSLRLSCAASGMTFTYYAMGWYRQAPGKERELVAAISWSDGSTYYADSVKGRFTISRDNAKNTVYLQMNSLKPEDTAVYYCAARYGGAISQAKYYYWGQGTQVTVSS | high polyreactivity
42 | QVQLVESGGGLVQAGGSLRLSCAASGNGLGWYRQAPGKERELVAAITRRGGSTYYADSVKGRFTISRDNAKNTVYLQMNSLKPEDTAVYYCAADNPSYNLWYGYWGQGTQVTVSS | low polyreactivity
43 | QVQLVESGGGLVQAGGSLRLSCAASGNHLRSLCLGWYRQAPGKERELVAAITSSGASTYYADSVKGRFTISRDNAKNTVYLQMNSLKPEDTAVYYCAAYLFRRYDYWGQGTQVTVSS | low polyreactivity
